Consider five molecules from patent publication US20120316071A1 (published 2012).

In test [1] the target is T1, rHuman ErbB2/Fc Chimera, CF (R&D Systems Cat#1129-ER) (human, UniProt P04626 23-652).
T1 construct: Bought Fc chimera; also called human epidermal growth factor 2 receptor; Fc part of the bought chimera not given
As to the kind of experiment: Multispot ECL (MSD) binding screen, antigen spotted on plate; hit = signal/blank >= 4.

Test [2] has as its target T2, rHuman P-Cadherin/Fc Chimera, CF (R&D Systems Cat#861-PC) (human, UniProt P22223 108-654).
T2 construct: Bought recombinant protein; Fc part of the bought chimera not given
As to the kind of experiment: ECL multispot (MSD) assay, antigen spotted on plate, 20 nM Fab.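 Further: purified Fab bound to plate-spotted antigen for 1 h at 20 °C, labelled detection antibody added, ratio of antigen ECL signal to same-well blank, ratio ≥4 counted as binder.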

The target in test [3] is T3, Recombinant Human DLL4 (R&D Systems Cat#1506-D4/CF) (human, UniProt Q9NR61 27-524).
T3 construct: Bought recombinant protein; also called delta-like protein 4; rHuman DLL4
The test is described as above.

Test [4] has as its target T4, rHuman EGF R/Fc Chimera, CF (R&D Systems Cat#344-ER) (human, UniProt P00533 25-645).
T4 construct: Bought recombinant protein; also called epidermal growth factor receptor; Fc part of the bought chimera not given
Described as above.

For test [5], the target named is T5, rHuman CD44/Fc Chimera, CF (R&D Systems Cat#3660-CD) (human, UniProt P16070 21-220).
T5 construct: Bought recombinant protein; Fc part of the bought chimera not given
The description is as above.

Test [6] addresses T6, rHuman Notch-1/Fc Chimera, CF (R&D Systems Cat#3647-TK) (human, UniProt P46531 19-526).
T6 construct: Bought recombinant protein; Fc part of the bought chimera not given
The description is as above.

Test [7] concerns the target T7, rHuman ErbB2/Fc Chimera, CF (R&D Systems Cat#1129-ER) (human, UniProt P04626 23-652).
T7 construct: Bought recombinant protein; also called human epidermal growth factor 2 receptor; Fc part of the bought chimera not given
The description is as above.

Test [8] deals with T8, rHuman IGF-1 sR, CF (R&D Systems Cat#391-GR) (human, UniProt P08069 31-932).
T8 construct: Bought soluble receptor; also called insulin-like growth factor-1 soluble receptor
Described as above.

Test [9] has as its target T9, rHuman Erythropoietin R/Fc Chimera, CF (R&D Systems Cat#963-ER) (human, UniProt P19235 25-250).
T9 construct: Bought recombinant protein; also called EPO R; EPO R/Fc; Fc part of the bought chimera not given
T9 sequence (looked up): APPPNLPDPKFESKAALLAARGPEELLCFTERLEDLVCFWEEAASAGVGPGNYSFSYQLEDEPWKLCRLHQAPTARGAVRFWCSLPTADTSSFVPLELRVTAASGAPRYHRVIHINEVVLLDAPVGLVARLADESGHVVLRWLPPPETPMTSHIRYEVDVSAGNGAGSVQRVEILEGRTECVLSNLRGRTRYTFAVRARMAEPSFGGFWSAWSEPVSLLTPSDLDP
As to the kind of experiment: ECL multispot (MSD) assay, antigen spotted on plate, Fab at 0.01 µM.

Test [10] concerns the target T10, rHuman ErbB2/Fc Chimera, CF (R&D Systems Cat#1129-ER) (human, UniProt P04626 23-652).
T10 construct: Bought recombinant protein; also called human epidermal growth factor 2 receptor; Fc part of the bought chimera not given
The test is described as above.

Test [11] concerns the target T11, Recombinant Human DLL4 (R&D Systems Cat#1506-D4/CF) (human, UniProt Q9NR61 27-524).
T11 construct: Bought recombinant protein; also called delta-like protein 4; rHuman DLL4
The test is described as above.

Test [12] has as its target T12, rHuman EGF R/Fc Chimera, CF (R&D Systems Cat#344-ER) (human, UniProt P00533 25-645).
T12 construct: Bought recombinant protein; also called epidermal growth factor receptor; Fc part of the bought chimera not given
The test is described as above.

Test [13] addresses T13, rHuman HGF R/c-MET/Fc Chimera, CF (R&D Systems Cat#358-MT/CF) (human, UniProt P08581 25-932).
T13 construct: Bought recombinant protein; also called HGF R/Fc; hepatocyte growth factor receptor; Fc part of the bought chimera not given
The test is described as above.

The target in test [14] is T14, rHuman P-Cadherin/Fc Chimera, CF (R&D Systems Cat#861-PC) (human, UniProt P22223 108-654).
T14 construct: Bought recombinant protein; Fc part of the bought chimera not given
Described as above.

Test [15] concerns the target T15, rHuman Notch-1/Fc Chimera, CF (R&D Systems Cat#3647-TK) (human, UniProt P46531 19-526).
T15 construct: Bought recombinant protein; Fc part of the bought chimera not given
The test is described as above.

The target in test [16] is T16, rHuman IGF-1 sR, CF (R&D Systems Cat#391-GR) (human, UniProt P08069 31-932).
T16 construct: Bought recombinant soluble receptor; also called insulin-like growth factor-1 soluble receptor
The description is as above.

Test [17] deals with T17, rHuman CD44/Fc Chimera, CF (R&D Systems Cat#3660-CD) (human, UniProt P16070 21-220).
T17 construct: Bought recombinant protein; Fc part of the bought chimera not given
The test is described as above.

Test [18] addresses T18, Recombinant Human DLL4 (R&D Systems Cat#1506-D4/CF) (human, UniProt Q9NR61 27-524).
T18 construct: Bought recombinant protein; also called delta-like protein 4; rHuman DLL4
As to the kind of experiment: ECL multispot (MSD) binding assay; DLL4 spotted on the plate, purified Fab added.

The target in test [19] is T18, Recombinant Human DLL4 (R&D Systems …). As to the kind of experiment: ECL multispot (MSD) binding assay; DLL4 signal over blank spot.

T13 sequence (P08581 25-932, change not shown): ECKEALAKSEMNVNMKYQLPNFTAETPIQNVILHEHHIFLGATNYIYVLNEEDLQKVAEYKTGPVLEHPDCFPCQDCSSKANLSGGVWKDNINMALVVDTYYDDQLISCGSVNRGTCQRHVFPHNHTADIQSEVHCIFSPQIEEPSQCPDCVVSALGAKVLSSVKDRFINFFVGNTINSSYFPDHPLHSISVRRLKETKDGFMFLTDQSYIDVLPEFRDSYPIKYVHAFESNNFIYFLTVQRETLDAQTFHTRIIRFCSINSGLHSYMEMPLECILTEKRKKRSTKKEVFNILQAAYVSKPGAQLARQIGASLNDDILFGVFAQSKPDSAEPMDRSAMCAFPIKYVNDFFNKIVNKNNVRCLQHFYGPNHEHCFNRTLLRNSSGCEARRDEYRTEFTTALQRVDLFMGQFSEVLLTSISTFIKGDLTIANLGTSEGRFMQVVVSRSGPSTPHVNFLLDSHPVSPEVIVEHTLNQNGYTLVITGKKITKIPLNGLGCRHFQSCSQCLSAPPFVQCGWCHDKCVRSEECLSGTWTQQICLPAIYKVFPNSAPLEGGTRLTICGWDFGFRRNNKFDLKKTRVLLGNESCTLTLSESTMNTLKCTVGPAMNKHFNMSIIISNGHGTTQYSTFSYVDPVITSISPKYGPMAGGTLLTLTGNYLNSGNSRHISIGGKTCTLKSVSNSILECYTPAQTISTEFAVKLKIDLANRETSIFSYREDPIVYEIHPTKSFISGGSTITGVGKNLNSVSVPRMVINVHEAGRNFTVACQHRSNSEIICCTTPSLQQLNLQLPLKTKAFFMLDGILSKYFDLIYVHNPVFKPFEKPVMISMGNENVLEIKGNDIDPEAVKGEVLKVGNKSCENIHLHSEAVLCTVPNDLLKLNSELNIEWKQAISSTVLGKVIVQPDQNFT

B1: Fab VH2-5_IGHD7-27*01_IGHJ2*01 & L2_IGKJ1*01 (Fab, V domains shown)
VH: QITLKESGPTLVKPTQTLTLTCTFSGFSLSTSGVGVGWIRQPPGKALEWLALIYWNDDKRYSPSLKSRLTITKDTSKNQVVLTMTNMDPVDTATYYCAHRPNWGYWYFDLWGRGTLVTVSS
VL: not shown
With B1, in test [1], the binding result is reported as “binds”.

B2: Fab VH3-23_IGHD2-21*01>3_IGHJ6*01 H100E/S108P/Y113G Y60A & V2-13_IGLJ2*01 (Fab, V domains shown)
VH: EVQLLESGGGLVQPGGSLRLSCAASGFTFSSYAMSWVRQAPGKGLEWVSSISGSGGSTYAADSVKGRFTISRDNSKNTLYLQMNSLRAEDTAVYYCAKEEIVVVIAIPYYYYGYGMDVWGQGTLVTVSS
VL: SSELTQDPAVSVALGQTVRITCQGDSLRSYYASWYQQKPGQAPVLVIYGKNNRPSGIPDRFSGSSSGNTASLTITGAQAEDEADYYCNSRDSSGNHLVVFGGGTKLTVL
notes: Tested as a Fab made in E. coli; also called EPG Y60A
As to B2, the “ECL signal/blank ratio (read-out not given)” value in test [2] was 25.3; in test [3] it was 2.3; in [4] it was 6.2; in test [5], 1.5; in test [6] it was 2.6; in test [7] it was 11.5. Also, in test [8], the “ECL signal/blank ratio (read-out not given)” value stood at 1.2.

B3: Fab VH1-69_IGHD1-1*01_IGHJ6*01 & A17_IGKJ1*01 (Fab, V domains shown)
VH: QVQLVQSGAEVKKPGSSVKVSCKASGGTFSSYAISWVRQAPGQGLEWMGGIIPIFGTANYAQKFQGRVTITADKSTSTAYMELSSLRSEDTAVYYCARGYNWNDDYYYYYGMDVWGQGTTVTVSS
VL: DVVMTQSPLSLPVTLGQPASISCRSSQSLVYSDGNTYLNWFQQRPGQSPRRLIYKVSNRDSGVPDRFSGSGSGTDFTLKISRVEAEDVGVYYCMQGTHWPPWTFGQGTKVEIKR
notes: Fab; expressed in E. coli from Plasmid A (CH1, His6 and Flag tags) and Plasmid C (kappa CL)
On to B3, for which, in test [1], the binding result is listed as “binds”.

B4: Fab VH1-46_IGHD6-6*01_IGHJ1*01 & L6_IGKJ1*01 (Fab, V domains shown)
VH: QVQLVQSGAEVKKPGASVKVSCKASGYTFTSYYMHWVRQAPGQGLEWMGIINPSGGSTSYAQKFQGRVTMTRDTSTSTVYMELSSLRSEDTAVYYCAREEYSSSSAEYFQHWGQGTLVTVSS
VL: not shown
notes: Tested as a Fab expressed in E. coli; The heavy chain variable region was cloned into Plasmid A (CH1, His6 and Flag tags) and the kappa light chain variable region into Plasmid C (kappa CL); also called Parent; parental
As to B4, the ECL signal/noise ratio in test [9] was found to be 1; in [10], 1; in [11] it was 4.9; in test [12], 0.9; in test [13], 0.9; in test [14], 1. Also, the ECL signal/noise ratio stood at 0.5 in [15], 0.8 in [16] and 1.1 in [17].

B5: Fab VH1-46_IGHD6-6*01_IGHJ1*01 S102A/S103P/S104F/H111F (APFF) & L6_IGKJ1*01 (Fab, V domains shown)
VH: QVQLVQSGAEVKKPGASVKVSCKASGYTFTSYYMHWVRQAPGQGLEWMGIINPSGGSTSYAQKFQGRVTMTRDTSTSTVYMELSSLRSEDTAVYYCAREEYAPFSAEYFQFWGQGTLVTVSS
VL: not shown
notes: Tested as an E. coli-expressed Fab; also called H:APFF & L:wt; APFF parent
With B5, the “ECL signal” value in [18] came to 189000 ECL counts. Moreover, the Signal/Blank in test [19] is 611 ratio.
